Assay results from patent US20050215503, “HIF oligonucleotide decoy molecules” (published 2005).

B1: decoy 977 (dsDNA)
DNA 1: CCAACGTACGTGCCTCAGG
DNA 2: CCTGAGGCACGTACGTTGG
B2: decoy 959 (dsDNA)
DNA 1: CCAGCGAACGTGCCTCAGG
DNA 2: CCTGAGGCACGTTCGCTGG
B3: decoy 971 (dsDNA)
DNA 1: CCAGTGTACGTGCCTCAGG
DNA 2: CCTGAGGCACGTACACTGG
B4: decoy 829/830 (dsDNA)
DNA 1: AGGAGACGTGCTGCCT
DNA 2: AGGCAGCACGTCTCCT
B5: decoy 947 (dsDNA)
DNA 1: CCAGCGTACGCGCCTCAGG
DNA 2: CCTGAGGCGCGTACGCTGG
B6: decoy 807/808 (dsDNA)
DNA 1: TCTGTACGTGACCACACTCACCTC
DNA 2: GAGGTGAGTGTGGTCACGTACAGA
B7: decoy 805/806 (dsDNA)
DNA 1: CCCCCTCGGACGTGACTCGGACCAC
DNA 2: GTGGTCCGAGTCACGTCCGAGGGGG
B8: decoy 837/838 (dsDNA)
DNA 1: AGGCAACGTGCAGCCG
DNA 2: CGGCTGCACGTTGCCT
B9: decoy 989 (dsDNA)
DNA 1: CCAGCGTACGTGCTTCAGG
DNA 2: CCTGAAGCACGTACGCTGG
B10: decoy 969 (dsDNA)
DNA 1: CCAGGGTACGTGCCTCAGG
DNA 2: CCTGAGGCACGTACCCTGG
B11: decoy 943 (dsDNA)
DNA 1: CCAGCGTACTTGCCTCAGG
DNA 2: CCTGAGGCAAGTACGCTGG
B12: decoy 987 (dsDNA)
DNA 1: CCAGCGTACGTGCGTCAGG
DNA 2: CCTGACGCACGTACGCTGG
B13: decoy 941 (dsDNA)
DNA 1: CCAGCGTACCTGCCTCAGG
DNA 2: CCTGAGGCAGGTACGCTGG
B14: decoy 963 (dsDNA)
DNA 1: CCAGCCTACGTGCCTCAGG
DNA 2: CCTGAGGCACGTAGGCTGG
B15: decoy 867/868 (dsDNA)
DNA 1: TCCGTACGTGCTGCAC
DNA 2: GTGCAGCACGTACGGA
B16: decoy 821/822 (dsDNA)
DNA 1: CGCGAGCGTACGTGCCTCAGG
DNA 2: CCTGAGGCACGTACGCTCGCG
B17: decoy 949 (dsDNA)
DNA 1: CCAGCGTACGGGCCTCAGG
DNA 2: CCTGAGGCCCGTACGCTGG
B18: decoy 955 (dsDNA)
DNA 1: CCAGCGTACGTTCCTCAGG
DNA 2: CCTGAGGAACGTACGCTGG
B19: decoy 871/872 (dsDNA)
DNA 1: ACCGTACGTGCTGCCA
DNA 2: TGGCAGCACGTACGGT
B20: decoy 965 (dsDNA)
DNA 1: CCAGCTTACGTGCCTCAGG
DNA 2: CCTGAGGCACGTAAGCTGG
B21: decoy 847/848 (dsDNA)
DNA 1: GGAACAACGTGGAATTAG
DNA 2: CTAATTCCACGTTGTTCC
B22: decoy 859/860 (dsDNA)
DNA 1: ACCGTACGTGCTGATC
DNA 2: GATCAGCACGTACGGT
B23: decoy 831/832 (dsDNA)
DNA 1: TCCAATACGTGCAGTACT
DNA 2: AGTACTGCACGTATTGGA
B24: decoy 991 (dsDNA)
DNA 1: CCAGCGTACGTGCATCAGG
DNA 2: CCTGATGCACGTACGCTGG
B25: decoy 973 (dsDNA)
DNA 1: CCAGAGTACGTGCCTCAGG
DNA 2: CCTGAGGCACGTACTCTGG
B26: decoy 967 (dsDNA)
DNA 1: CCAGCATACGTGCCTCAGG
DNA 2: CCTGAGGCACGTATGCTGG
B27: decoy 873/874 (dsDNA)
DNA 1: TCCGTACGTGCTGCGT
DNA 2: ACGCAGCACGTACGGA
B28: decoy 899 (dsDNA)
DNA 1: CGAGCGTACGTGCCTCAGG
DNA 2: CCTGAGGCACGTACGCTCG
B29: decoy 893 (dsDNA)
DNA 1: CACGAGCGTACGTGCCTCAGG
DNA 2: CCTGAGGCACGTACGCTCGTG
B30: decoy 995 (dsDNA)
DNA 1: CCAGCGTACGTGCCGCAGG
DNA 2: CCTGCGGCACGTACGCTGG
B31: decoy 957 (dsDNA)
DNA 1: CCAGCGCACGTGCCTCAGG
DNA 2: CCTGAGGCACGTGCGCTGG
B32: decoy 945 (dsDNA)
DNA 1: CCAGCGTACGAGCCTCAGG
DNA 2: CCTGAGGCTCGTACGCTGG
B33: decoy 813/814 (dsDNA)
DNA 1: GCCCTACGTGCTGTCTCACACAGC
DNA 2: GCTGTGTGAGACAGCACGTAGGGC
B34: decoy 979 (dsDNA)
DNA 1: CCATCGTACGTGCCTCAGG
DNA 2: CCTGAGGCACGTACGATGG
B35: decoy 833/834 (dsDNA)
DNA 1: TCCAATGCGTGCAGTACT
DNA 2: AGTACTGCACGCATTGGA
B36: decoy 929 (dsDNA)
DNA 1: CCAGCGTGCGTGCCTCAGG
DNA 2: CCTGAGGCACGCACGCTGG
B37: decoy 835/836 (dsDNA)
DNA 1: GGCCAGACGTGCCACCGG
DNA 2: CCGGTGGCACGTCTGGCC
B38: decoy 801/802 (dsDNA)
DNA 1: GCCCTACGTGCTGTCTCA
DNA 2: TGAGACAGCACGTAGGGC
B39: decoy 815/816 (dsDNA)
DNA 1: GTGAGACGTGCGGCTTCCGTTTG
DNA 2: CAAACGGAAGCCGCACGTCTCAC
B40: decoy 953 (dsDNA)
DNA 1: CCAGCGTACGTACCTCAGG
DNA 2: CCTGAGGTACGTACGCTGG
B41: decoy 877/878 (dsDNA)
DNA 1: ACCGTACGTGCTGCTA
DNA 2: TAGCAGCACGTACGGT
B42: decoy 993 (dsDNA)
DNA 1: CCAGCGTACGTGCCACAGG
DNA 2: CCTGTGGCACGTACGCTGG
B43: decoy 927 (dsDNA)
DNA 1: CCAGCGTTCGTGCCTCAGG
DNA 2: CCTGAGGCACGAACGCTGG
B44: decoy 951 (dsDNA)
DNA 1: CCAGCGTACGTCCCTCAGG
DNA 2: CCTGAGGGACGTACGCTGG
B45: decoy 905 (dsDNA)
DNA 1: GATCGCCCTACGTGCTGTCTCAGATC
DNA 2: GATCTGAGACAGCACGTAGGGCGATC
B46: decoy 855/856 (dsDNA)
DNA 1: GTGTGTACGTGCAGGAAA
DNA 2: TTTCCTGCACGTACACAC
B47: decoy 975 (dsDNA)
DNA 1: CCACCGTACGTGCCTCAGG
DNA 2: CCTGAGGCACGTACGGTGG
B48: decoy 931 (dsDNA)
DNA 1: CCAGCGTCCGTGCCTCAGG
DNA 2: CCTGAGGCACGGACGCTGG
B49: decoy 911 (dsDNA)
DNA 1: CACAGCGTACGTGCTGTCTCA
DNA 2: TGAGACAGCACGTACGCTGTG
B50: decoy 939 (dsDNA)
DNA 1: CCAGCGTACATGCCTCAGG
DNA 2: CCTGAGGCATGTACGCTGG
B51: decoy 961 (dsDNA)
DNA 1: CCAGCGGACGTGCCTCAGG
DNA 2: CCTGAGGCACGTCCGCTGG

Target: HIF-1 (HIF-1alpha/HIF-1beta (ARNT) heterodimer) (Homo sapiens?, UniProt Q16665;P27540 Q16665:1-826,P27540:2-789)
Sequence (Q16665 whole entry, chain 1 of 2): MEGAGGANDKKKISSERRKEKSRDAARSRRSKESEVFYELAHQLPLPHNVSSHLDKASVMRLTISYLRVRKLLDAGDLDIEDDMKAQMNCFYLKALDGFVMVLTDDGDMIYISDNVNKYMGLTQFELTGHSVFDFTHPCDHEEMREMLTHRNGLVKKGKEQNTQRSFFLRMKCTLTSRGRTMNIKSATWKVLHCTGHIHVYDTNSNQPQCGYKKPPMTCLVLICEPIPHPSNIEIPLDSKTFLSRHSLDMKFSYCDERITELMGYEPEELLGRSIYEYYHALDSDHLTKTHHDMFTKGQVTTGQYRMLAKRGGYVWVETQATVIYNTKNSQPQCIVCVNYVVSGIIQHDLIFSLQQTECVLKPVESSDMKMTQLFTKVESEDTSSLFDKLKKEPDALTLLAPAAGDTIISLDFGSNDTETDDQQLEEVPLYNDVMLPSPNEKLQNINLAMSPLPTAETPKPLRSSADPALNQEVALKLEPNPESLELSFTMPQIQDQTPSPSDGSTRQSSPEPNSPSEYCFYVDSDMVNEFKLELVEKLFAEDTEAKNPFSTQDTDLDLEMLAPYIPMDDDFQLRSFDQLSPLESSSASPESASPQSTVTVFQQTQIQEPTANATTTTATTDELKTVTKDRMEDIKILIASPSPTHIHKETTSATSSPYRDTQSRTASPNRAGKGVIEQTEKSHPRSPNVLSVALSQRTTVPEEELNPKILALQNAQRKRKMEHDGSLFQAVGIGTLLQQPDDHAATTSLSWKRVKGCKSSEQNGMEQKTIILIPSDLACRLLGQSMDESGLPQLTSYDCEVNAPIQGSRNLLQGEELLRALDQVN
Sequence (P27540 2-789, chain 2 of 2): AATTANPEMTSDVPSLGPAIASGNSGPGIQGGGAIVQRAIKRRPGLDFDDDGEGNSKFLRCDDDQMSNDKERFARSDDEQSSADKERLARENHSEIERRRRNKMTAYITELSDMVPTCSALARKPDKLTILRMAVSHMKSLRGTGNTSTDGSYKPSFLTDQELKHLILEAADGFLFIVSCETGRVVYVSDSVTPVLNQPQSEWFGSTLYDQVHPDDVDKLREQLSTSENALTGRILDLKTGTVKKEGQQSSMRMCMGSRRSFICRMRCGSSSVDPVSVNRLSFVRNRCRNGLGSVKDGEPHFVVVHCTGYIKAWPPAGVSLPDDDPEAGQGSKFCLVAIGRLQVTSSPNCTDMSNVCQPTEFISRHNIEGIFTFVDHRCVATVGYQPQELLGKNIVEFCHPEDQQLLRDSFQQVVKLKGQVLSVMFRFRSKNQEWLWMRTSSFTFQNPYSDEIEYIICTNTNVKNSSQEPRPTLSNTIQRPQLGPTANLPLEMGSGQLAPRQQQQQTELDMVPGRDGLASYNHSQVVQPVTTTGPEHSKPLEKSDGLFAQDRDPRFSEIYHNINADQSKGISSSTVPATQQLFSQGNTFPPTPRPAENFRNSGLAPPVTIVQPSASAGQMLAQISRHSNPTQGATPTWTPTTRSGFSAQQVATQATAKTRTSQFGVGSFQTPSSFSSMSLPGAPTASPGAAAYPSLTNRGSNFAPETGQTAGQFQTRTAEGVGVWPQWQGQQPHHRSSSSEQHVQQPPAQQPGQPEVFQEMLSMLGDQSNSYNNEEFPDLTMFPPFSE
Experiment: competition; TransAM
Conditions: protein: extract; tags: none (endogenous, nuclear extract)
Description: To assess the relative affinities of oligonucleotides for a HIF-1α containing complex, the HIF-1 TransAM assay (Active Motif, Catalog # 47096) was utilized. The assay was performed according to manufacturer's instructions. Briefly, a double-stranded oligonucletide containing the hypoxia response element (HRE) was immobilized on a 96-well plate. A nuclear extract containing HIF-1α complexes was incubated and allowed to bind to the immobilized oligonucleotide. The unbound material was washed away and the bound HIF-1α detected using an antibody that specificially recognizes HIF-1α. The anti-HIF-1α antibody was detected by a secondary antibody labeled with horseradish peroxidase (HRP), and the amount of HRP in each well was measured using a calorimetric substrate reaction and read using a microplate spectrophotometer.
The ability of candidate decoy molecules to compete for binding of HIF-1α to the HRE element-immobilized on the plate were measured and compared to reveal relative binding affinities. Candidate decoys were added in increasing molar ratios (relative to the amount of oligo immobilized on the plate) to compete for binding to the HIF-1α containing complexes. The amounts of decoys added to the assay included 0.625, 1.25, 2.5, 5, 10 and 20 fold molar excess. A well containing a competing decoy able to bind HIF-1α with high affinity would give a lower absorbance reading as compared to a decoy with low affinity for HIF-1α. All potential decoys were then compared and ranked in order to assess their relative binding affinities.
The screen was conducted using different decoy concentrations. For each UV absorbance reading, normalization was done by calculating the ratio of absorbance readings of sample vs. wild type control. The bigger ratio represents less competition of binding with HIF-1α when compared with wild-type control. The smaller (smaller than 1.0 or close to 1.0) ratios represent better binding or better competition.

Binder | binding signal [ratio]
B1 | 1.43
B2 | 2.07
B3 | 1.05
B4 | 5.12
B5 | 2.94
B6 | 2.76
B7 | 1.13
B8 | 3.74
B9 | 1.21
B10 | 1.67
B11 | 2.83
B12 | 1.16
B13 | 3.45
B14 | 1.17
B15 | 2.63
B16 | 1.33
B17 | 2.73
B18 | 2.4
B19 | 2.21
B20 | 1.61
B21 | 3.02
B22 | 2.37
B23 | 3.36
B24 | 1.02
B25 | 1.34
B26 | 1.53

Binder | binding signal [ratio]
B27 | 2.33
B28 | 1.34
B29 | 0.94
B30 | 0.92
B31 | 1.41
B32 | 3.14
B33 | 4.6
B34 | 1.41
B35 | 3.05
B36 | 2.35
B37 | 2.91
B38 | 4
B39 | 4.43
B40 | 2.67
B41 | 2.23
B42 | 0.93
B43 | 3.16
B44 | 2.91
B45 | 1.54
B46 | 1.07
B47 | 1.63
B48 | 3.44
B49 | 1.16
B50 | 2.93
B51 | 1.65
